Consider 1 substance from US20250222128A1, “ANTIBODY DRUG-CONJUGATES TARGETING C-MET AND METHODS OF USE THEREOF” (Zymeworks BC Inc., priority 2022, published 2025).

In assay [1] the target is c-Met (hepatocyte growth factor receptor, HGFR), endogenous on tumour cell lines (UniProt P08581). As to the kind of experiment: cell-based or functional assay.
Assay [2] has the same target. The assay is described as follows: apparent Kd, flow cytometry on H292 cells (endogenous cMet).
The target is the same in assay [3]. The assay is described as follows: apparent Kd, flow cytometry on SNU-5 cells (endogenous cMet).

Chain of c-Met (hepatocyte growth factor receptor, HGFR), endogenous on tumour cell lines (P08581 25-1390 limits assumed): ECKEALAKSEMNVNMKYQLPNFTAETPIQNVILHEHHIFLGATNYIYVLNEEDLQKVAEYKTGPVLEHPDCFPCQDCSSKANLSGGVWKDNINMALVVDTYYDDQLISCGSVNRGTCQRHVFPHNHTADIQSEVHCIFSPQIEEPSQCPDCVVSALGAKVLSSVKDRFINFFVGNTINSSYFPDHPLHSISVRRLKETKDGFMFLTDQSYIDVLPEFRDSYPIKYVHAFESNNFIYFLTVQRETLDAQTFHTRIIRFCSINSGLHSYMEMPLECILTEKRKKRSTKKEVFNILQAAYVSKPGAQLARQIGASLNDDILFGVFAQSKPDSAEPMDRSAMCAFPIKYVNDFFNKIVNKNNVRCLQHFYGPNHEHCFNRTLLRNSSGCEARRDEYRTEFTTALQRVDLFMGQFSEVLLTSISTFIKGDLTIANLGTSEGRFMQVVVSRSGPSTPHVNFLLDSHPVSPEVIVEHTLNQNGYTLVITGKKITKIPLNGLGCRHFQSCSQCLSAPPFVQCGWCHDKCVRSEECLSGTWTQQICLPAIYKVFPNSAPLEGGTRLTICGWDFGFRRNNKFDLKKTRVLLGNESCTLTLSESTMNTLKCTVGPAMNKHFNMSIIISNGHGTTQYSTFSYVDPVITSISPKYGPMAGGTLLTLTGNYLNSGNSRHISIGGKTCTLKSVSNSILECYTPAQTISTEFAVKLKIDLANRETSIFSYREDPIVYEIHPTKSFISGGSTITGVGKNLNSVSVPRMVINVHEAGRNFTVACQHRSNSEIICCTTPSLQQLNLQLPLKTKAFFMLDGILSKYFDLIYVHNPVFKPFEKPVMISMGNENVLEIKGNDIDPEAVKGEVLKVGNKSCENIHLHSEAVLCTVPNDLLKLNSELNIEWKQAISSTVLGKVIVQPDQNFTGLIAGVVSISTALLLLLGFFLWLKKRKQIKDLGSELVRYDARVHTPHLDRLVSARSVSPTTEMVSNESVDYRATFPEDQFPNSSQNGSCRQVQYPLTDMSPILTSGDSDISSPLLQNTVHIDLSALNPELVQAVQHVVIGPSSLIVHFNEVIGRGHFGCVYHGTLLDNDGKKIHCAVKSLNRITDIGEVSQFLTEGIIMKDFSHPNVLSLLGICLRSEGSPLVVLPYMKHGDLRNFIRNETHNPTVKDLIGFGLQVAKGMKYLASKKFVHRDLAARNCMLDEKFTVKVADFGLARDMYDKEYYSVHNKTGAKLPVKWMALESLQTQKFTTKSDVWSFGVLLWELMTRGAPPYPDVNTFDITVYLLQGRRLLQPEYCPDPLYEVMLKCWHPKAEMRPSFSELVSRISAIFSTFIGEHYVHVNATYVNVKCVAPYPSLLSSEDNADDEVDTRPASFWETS

In assay [1], “palivizumab (v22277), unconjugated anti-RSV antibody” gave a Mean Object Fluorescence (Internalized), 5 Hours 37° C., EBC-1, 0.3 nM of 2690; a Mean Object Fluorescence (Internalized), 5 Hours 37° C., EBC-1, 1.9 nM of 3050; a Mean Object Fluorescence (Internalized), 5 Hours 37° C., EBC-1, 12 nM of 1990; a Mean Object Fluorescence (Internalized), 5 Hours 37° C., EBC-1, 70 nM of 2600. Further, in assay [1], the Mean Object Fluorescence (Internalized), 5 Hours 37° C., HT-29, 0.3 nM stood at 2750; the Mean Object Fluorescence (Internalized), 5 Hours 37° C., HT-29, 1.9 nM was 2360; the Mean Object Fluorescence (Internalized), 5 Hours 37° C., HT-29, 12 nM worked out at 2330; the Mean Object Fluorescence (Internalized), 5 Hours 37° C., HT-29, 70 nM is 2290. In addition, in assay [2], the Kd was greater than 50 nM. The Kd in assay [3] is greater than 50 nM.
